Assay results published in article PMC2195916.

How the values were obtained:
[1] = target: C4b-binding protein (C4bp) (human) (UniProt P04003); assay: flow cytometry on cells
[2] = target: Por1B of N. gonorrhoeae strain MS11 (Neisseria gonorrhoeae strain MS11); assay: flow cytometry on cells

C4b (natural protein) was tested, and the percent decrease of C4bp binding to MS11 (C4b in 60-fold molar excess) [1] was 50%.
For “C4b-binding protein (C4bp) (from UniProt P04003 49-597; P20851 18-252) (complex)”, the percent decrease of binding in 575 mM NaCl [2] was 85% and the percent decrease of binding with 125 units of heparin [2] was > 90%.
